Assay results taken from the supplement of paper PMC12042874.
± gives the uncertainty stated by the source.

Assay: amyloid nucleation score (Sup35N fusion, yeast selection) (log enrichment); library NNK1; higher = more nucleation; inactive = no reads after selection
How it was run: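 DiMSum was used to calculate nucleation scores as log enrichment of output over input reads, centred on the mode score of non-aggregating sequences. Sequences with fewer than 100 input reads were not scored. Input and output came from Illumina sequencing of plasmid inserts in psi-negative yeast expressing peptides of 20 random codons fused to Sup35N, induced 24 hours with 100 μM copper sulfate and then grown 7 days at 30°C on medium lacking adenine and uracil.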
CLGQDKLWNFVFTFLYLLQF gave an amyloid nucleation score of -0.172 ± 0.48. GRVQL showed an amyloid nucleation score of 0.405 ± 0.48. Substance MMTGFNNIPTIKQLGSCAHY has an amyloid nucleation score of 0.291 ± 0.97. For VYKCSQVDRVCKMAWVGLKS, the amyloid nucleation score was 0.205 ± 0.34. With YVMDMIYFYDGLVWSCLCWI the amyloid nucleation score was “inactive”. In the case of QVNRSVDFPSRFIKSY, the amyloid nucleation score is reported as -0.687 ± 1.4. Work on NLTFGYVGHK yielded an amyloid nucleation score of 3.91 ± 0.087. KRPSSFVEFFMLWRSKAR gave an amyloid nucleation score of 0.947 ± 0.43. In the case of NNSLKCCLFLMSNLKSSRVN, the amyloid nucleation score is reported as 6.08 ± 0.066. In the case of MNSVGAGWFGLRCNYRAHEA, the amyloid nucleation score is reported as 0.252 ± 1.1. CTLVDHYWGCEGRSCARCSS showed an amyloid nucleation score of 0.233 ± 0.55. ISLVICGFYGLAEMVDNSQN gave an amyloid nucleation score of 7.51 ± 0.077. With ARRRF the amyloid nucleation score was -0.345 ± 1.7. Substance ADLSISRWCLCGRNALGLFF has an amyloid nucleation score of 5.12 ± 0.07. ASLTDVYIDELRLSNEGTWN showed an amyloid nucleation score of 1.94 ± 0.65. For LCSHAIFCSSCGRFVLMEAC, the amyloid nucleation score was “inactive”. Substance WSVSASQFRSVPRSPFALSQ has an amyloid nucleation score of -0.303 ± 0.26. GHYVDLKSLYPPMTCAMACM gave an amyloid nucleation score of -0.125 ± 0.38. SYRIMPLMCILNCLFNCIYI showed an amyloid nucleation score of 4.8 ± 0.059. For LTILCWWLYEIRR, the amyloid nucleation score was 0.556 ± 0.55. With MLLACPHLTGYGVILIASIA the amyloid nucleation score was -0.292 ± 0.36. Work on IVCFM yielded an amyloid nucleation score of -0.377 ± 0.6. In the case of IKTNHKDNLWNNFNLYDKAH, the amyloid nucleation score is reported as 0.233 ± 0.31. With CCDIEITLSHGVIGICSRKT the amyloid nucleation score was 0.844 ± 0.26. ISLGCNDSGLRIG gave an amyloid nucleation score of -0.935 ± 0.84. In the case of LWWLHGDLLLSWGFRMLWPL, the amyloid nucleation score is reported as 0.117 ± 0.78. With MKLWMEMRWGRG the amyloid nucleation score was 5.41 ± 0.064. Substance RTGPLSVASGAVPYGYQPWL has an amyloid nucleation score of -0.203 ± 0.62. Substance IKWYAY has an amyloid nucleation score of 0.952 ± 0.68. SKLTYLTMPSVGEIHFWNPM gave an amyloid nucleation score of 3.44 ± 0.18. HRTDRCVVMLHWPWIF gave an amyloid nucleation score of -0.025 ± 0.56. With GRRGKWVSSPWGGELKTCSK the amyloid nucleation score was 4.24 ± 0.084. In the case of FNYLICAVDSRTLNSW, the amyloid nucleation score is reported as 4.7 ± 0.05. YSLVICNQNSFPNMVDIVLG showed an amyloid nucleation score of 2.53 ± 0.074. For SGHNSLGFISGIAINIFYRE, the amyloid nucleation score was 7.537 ± 0.069. LNSDCCPNSFDKHFLSFLCM showed an amyloid nucleation score of 0.433 ± 0.81. WESEFYLGLELERVAGGSGG gave an amyloid nucleation score of -1.03 ± 2.7. With CFKFARGGVLI the amyloid nucleation score was 1.32 ± 0.66. Substance VRCIVTERLTLAMDW has an amyloid nucleation score of 0.199 ± 0.47. In the case of GFSVLCRSRPQGSTGVQIRV, the amyloid nucleation score is reported as -0.788 ± 0.86. Work on GDVFVYSDDWGDGVNGSGGR yielded an amyloid nucleation score of -1.96 ± 2.4. KTAPGLKCIQIEVWQY showed an amyloid nucleation score of 0.035 ± 0.35. LSILSGWNTE showed an amyloid nucleation score of 0.146 ± 0.32. RGNANIVEDSLFVVIGGRKV showed an amyloid nucleation score of 4.25 ± 0.074. For IFSLCSVLSSNIEECPS, the amyloid nucleation score was -0.257 ± 0.8. For IWMTGVLLNP, the amyloid nucleation score was -0.223 ± 0.29. YSAYNRQEDLGLKIVFVLLT showed an amyloid nucleation score of 2.57 ± 0.1. In the case of RNPTFFAMCSMCWLSTT, the amyloid nucleation score is reported as 0.852 ± 0.97. TCIIFIYNSWSSLQPFMSGM showed an amyloid nucleation score of 2.65 ± 0.21. Substance LLLTHNLVNADDSVDSMQHK has an amyloid nucleation score of 0.086 ± 0.24. QCRITDSFCSGA showed an amyloid nucleation score of -0.163 ± 0.45. Substance LDSARMGLFITGMV has an amyloid nucleation score of -1.06 ± 0.87. Substance ILTDTSMGTSAVHRARQTLK has an amyloid nucleation score of 0.066 ± 0.48. ILSWSNSGRMNHRPLVYERS showed an amyloid nucleation score of 0.963 ± 0.43. For CMHEKIYIITCRSCGLREIR, the amyloid nucleation score was 0.164 ± 0.39. For YFAVL, the amyloid nucleation score was “inactive”. Work on QLELWVSLRCISWLQILRIL yielded an amyloid nucleation score of 1.06 ± 0.53. CNYCIWPARFVVIHDAMCVS showed an amyloid nucleation score of -0.98 ± 1.1. Substance CTRVTSRAM has an amyloid nucleation score of -0.757 ± 0.9. Work on YIIVLA yielded an amyloid nucleation score of 1.28 ± 0.61. SVLSSLVSEISGVVCLVLGH gave an amyloid nucleation score of -0.214 ± 0.57. TEDDYYSGLRRGKDKEGCSF showed an amyloid nucleation score of -0.084 ± 0.44. For LTLALESLEPIRLTRNMWAL, the amyloid nucleation score was -0.411 ± 0.65. GLIQYPGFIASMYPSDNTSC gave an amyloid nucleation score of 0.135 ± 0.41. In the case of ECQCFDQICEQLNSYRDQFS, the amyloid nucleation score is reported as 0.105 ± 0.97. In the case of DCKLGISGIDLVNRFLYPCM, the amyloid nucleation score is reported as 1.33 ± 0.84. PVLPDDLNARREYSGCIKYL showed an amyloid nucleation score of 0.765 ± 0.55. KTFLHSTSYNNKKRWMSLRQ gave an amyloid nucleation score of 0.485 ± 0.66. Substance LALFIDWQ has an amyloid nucleation score of 1.53 ± 0.53. LTLKTSNHFIYLSLLYIRVV gave an amyloid nucleation score of -0.03 ± 0.3. With RYKWMYFCFHLIMVGNRMSA the amyloid nucleation score was “inactive”. In the case of RMGVA, the amyloid nucleation score is reported as 0.644 ± 0.92. VVHRALLYGNGIVN gave an amyloid nucleation score of 1.4 ± 0.7. In the case of KLLNRTMRTMVSVSRVM, the amyloid nucleation score is reported as 0.738 ± 0.72. For ESEWNIMPFDNLYLGRETVW, the amyloid nucleation score was “inactive”. NDDNCSSVSWWNKWCSTR showed an amyloid nucleation score of 1.44 ± 0.41. In the case of EMFHVVGSRLMPVRMVRNQC, the amyloid nucleation score is reported as “inactive”. Substance GRTAQAVRGGRAVVYAGLKL has an amyloid nucleation score of -0.157 ± 0.36. Substance VFADVISIKMNCTLLTSILL has an amyloid nucleation score of 0.823 ± 0.37. In the case of FLQRIKNHAVSAGWIYSLSK, the amyloid nucleation score is reported as 0.106 ± 0.43. In the case of MSEFADTIMIVNGCGWRVVR, the amyloid nucleation score is reported as -0.039 ± 0.26. Substance VARHGEGFNW has an amyloid nucleation score of 0.446 ± 0.64. Substance VVLPGYMLNGFPNESNLIWP has an amyloid nucleation score of -1.22 ± 0.49. FRLLGLTR gave an amyloid nucleation score of 0.087 ± 0.62. For MLEGMRRWNNIALVVIRGVG, the amyloid nucleation score was -0.556 ± 1.1. Work on KGKTNGVV yielded an amyloid nucleation score of -0.44 ± 0.48.
